Assay results reported in publication PMC7407159.

Molecular target: T1, histidine tagged full length homo sapiens mitofusin 1 (hsMfn1) (human), Q8IWA4
T1 chain: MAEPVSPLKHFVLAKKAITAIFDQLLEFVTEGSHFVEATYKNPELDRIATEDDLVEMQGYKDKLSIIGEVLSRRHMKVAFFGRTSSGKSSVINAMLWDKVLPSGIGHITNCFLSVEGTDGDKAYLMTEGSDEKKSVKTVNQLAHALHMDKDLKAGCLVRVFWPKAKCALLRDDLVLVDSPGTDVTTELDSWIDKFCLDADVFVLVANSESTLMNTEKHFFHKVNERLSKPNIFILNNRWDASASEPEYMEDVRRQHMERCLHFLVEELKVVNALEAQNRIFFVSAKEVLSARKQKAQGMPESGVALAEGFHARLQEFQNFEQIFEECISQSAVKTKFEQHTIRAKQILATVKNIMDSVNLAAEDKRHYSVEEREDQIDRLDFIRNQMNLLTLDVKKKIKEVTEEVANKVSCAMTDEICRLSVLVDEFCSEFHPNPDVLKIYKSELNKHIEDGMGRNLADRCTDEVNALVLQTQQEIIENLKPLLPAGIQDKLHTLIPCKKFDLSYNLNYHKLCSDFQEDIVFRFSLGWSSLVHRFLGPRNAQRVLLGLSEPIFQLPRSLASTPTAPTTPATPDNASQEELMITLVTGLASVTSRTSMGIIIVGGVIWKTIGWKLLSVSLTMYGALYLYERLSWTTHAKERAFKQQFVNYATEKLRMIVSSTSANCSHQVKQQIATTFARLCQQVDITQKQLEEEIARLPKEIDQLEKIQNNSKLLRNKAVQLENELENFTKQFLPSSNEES
Assay: vesicle adhesion (shape of adhered GUV doublets by confocal microscopy), adhesion strength fitted to a cooperative binding model; His-Mfn1 (detergent resistant fraction of Mfn1-IMVs) bound by its histidine tag to POPC/DOGS-NTA GUVs with 10, 15, 20 and 25 mol% DOGS-NTA; 10 mM GDP, 2.5 mM …; 22 °C; Eadh against [NTA] fitted to Equation (6); two-dimensional binding equilibrium constant for planar membranes, Mfn1 with …
Conditions: remark: other sources report otherwise

B1: histidine tagged full length homo sapiens mitofusin 1 (hsMfn1), Q8IWA4 1-741 (natural protein)
chain: T1 chain
two-dimensional binding equilibrium constant for planar membranes (K2D' of Equation 6, printed as KD') (nm^2 per molecule): 0.1
